In series [1] the target is T1, His-ASF/SF2 (UniProt Q07955 1-248). Briefly: intrinsic tryptophan fluorescence quenching; apparent KD; 100 mM KCl, 20 mM Tris-HCl pH 7.5, room temperature, 100 nM His-ASF/SF2, excitation 280 nm, emission 340 nm. The following applies: protein: recombinant, tags: C-terminal His6.
Series [2] concerns the target T1, His-ASF/SF2. Briefly: intrinsic tryptophan fluorescence quenching; no appKD could be calculated; 100 mM KCl, 20 mM Tris-HCl pH 7.5, room temperature, 100 nM His-ASF/SF2, excitation 280 nm, emission 340 nm. The following applies: protein: recombinant; tags: C-terminal His6; hairpin.
The target in series [3] is T1, His-ASF/SF2. Briefly: intrinsic tryptophan fluorescence quenching; no appKD; loss of binding stated; 100 mM KCl, 20 mM Tris-HCl pH 7.5, room temperature, 100 nM His-ASF/SF2, excitation 280 nm, emission 340 nm. As to conditions: protein: recombinant; tags: C-terminal His6; hairpin.

T1 sequence (Q07955 whole entry): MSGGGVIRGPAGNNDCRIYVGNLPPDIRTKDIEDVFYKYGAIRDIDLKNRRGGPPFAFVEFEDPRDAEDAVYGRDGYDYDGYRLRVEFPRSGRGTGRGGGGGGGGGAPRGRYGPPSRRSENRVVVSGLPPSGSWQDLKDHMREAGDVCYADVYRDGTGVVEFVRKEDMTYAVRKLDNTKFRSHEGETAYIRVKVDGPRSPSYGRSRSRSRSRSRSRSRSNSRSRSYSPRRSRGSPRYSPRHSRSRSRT

B1: R161G (structured_RNA)
RNA: UCUCUCCCUCCGCGGUUCUUCCUCGACUCGGCCCGGCUCAUCUCGGCUAGAGGCGGCAGUCCUCAGUACUCUUACUCUUUUCUGUAAAGAGGAGACUGCUGGACUCGCCGCCCGAGGCCGAGCCUGAGCCAAGUGCCGAGCGAGGAGACGCGGGGGGAGGA
Regarding B1, in the series with His-ASF/SF2 [1] (hairpin), the Kd was about 900 nM.

B2: R199G (structured_RNA)
RNA: GGGACUGCUCGAGGAUCUCUUCUCUCCCUCCGCGGUUCUUCCUCGACUCGGCCCGGCUCAUCUCGGCUAGAGGCGGCAGUCCUCAGUACUCUUACUCUUUUCUGUAAAGAGGAGACUGCUGGACUCGCCGCCCGAGGCCGAGCCUGAGCCAAGUGCCGAGCGAGGAGACGCGGGGGGAGGAUCAGCACCCGAGAGGGGAUGU
Turning to B2, in the series with His-ASF/SF2 [1] (rod-like hairpin), the Kd was about 640 nM.

B3: R156G (structured_RNA)
RNA: CUCCCUCCGCGGUUCUUCCUCGACUCGGCCCGGCUCAUCUCGGCUAGAGGCGGCAGUCCUCAGUACUCUUACUCUUUUCUGUAAAGAGGAGACUGCUGGACUCGCCGCCCGAGGCCGAGCCUGAGCCAAGUGCCGAGCGAGGAGACGCGGGGGGAG
In the case of B3, the binding result with His-ASF/SF2 [2] was “no binding”.

Take AGUCCUCAGUACUCUUACUCUUUUCUGUAAAGAGGAGACUGCUGGACU (structured_RNA) [R47G]: the binding result in the series with His-ASF/SF2 [2] is given as “no binding”.

B4: R177G (structured_RNA)
RNA: GGAUCUCUUCUCUCCCUCCGCGGUUCUUCCUCGACUCGGCCCGGCUCAUCUCGGCUAGAGGCGGCAGUCCUCAGUACUCUUACUCUUUUCUGUAAAGAGGAGACUGCUGGACUCGCCGCCCGAGGCCGAGCCUGAGCCAAGUGCCGAGCGAGGAGACGCGGGGGGAGGAUCAGCACC
On to B4, for which the Kd with His-ASF/SF2 [1] (hairpin) was about 870 nM.

B5: R177GΔASF (structured_RNA)
RNA: GGAUCUCUUCCGCGGUUCUUCCUCGACUCGGCCCGGCUCAUCUCGGCUAGAGGCGGCAGUCCUCAGUACUCUUACUCUUUUCUGUAAAGAGGAGACUGCUGGACUCGCCGCCCGAGGCCGAGCCUGAGCCAAGUGCCGAGCGAGGAGACGCGGGUCAGCACC
B5: the binding result with His-ASF/SF2 [3] is “no binding”.

The values are drawn from publication PMC3548785, “Identification of a Binding Site for ASF/SF2 on an RNA Fragment Derived from the Hepatitis delta Virus Genome”.
